Laboratory results from article PMC9481538, “The interaction between LC8 and LCA5 reveals a novel oligomerization function of LC8 in the ciliary-centrosome system” (Scientific Reports, 2022).

Tests used:
[1] = target: Dynein light chain LC8 (DYNLL2), 6xHis-tagged (UniProt Q96FJ2); assay: SEC; Superose 6 Increase 10/300, DPBS with 200 μM TCEP; LC8 or sLCA5-WT alone; masses estimated from a calibration curve
[2] = target: FITC-labelled BMF (Bcl-2-modifying factor) peptide (…); assay: fluorescence polarisation; direct titration of 50 nM FITC-BMF peptide with LC8; 25 °C, PBS, 2 mM TCEP, 0.05% Brij
[3] = target: sLCA5-ΔVQT (human (cDNA library from HEK293)) (UniProt Q86VQ0); assay: ITC; MBP-fused LCA5 construct in the cell, LC8 injected, 37 injections of 1 μl; 37 °C, PBS pH 7.4, 1 mM TCEP
Sequence of sLCA5-ΔVQT (human (cDNA library from HEK293)) (Q86VQ0 other isoform, or with tags, fused parts or gaps mutant): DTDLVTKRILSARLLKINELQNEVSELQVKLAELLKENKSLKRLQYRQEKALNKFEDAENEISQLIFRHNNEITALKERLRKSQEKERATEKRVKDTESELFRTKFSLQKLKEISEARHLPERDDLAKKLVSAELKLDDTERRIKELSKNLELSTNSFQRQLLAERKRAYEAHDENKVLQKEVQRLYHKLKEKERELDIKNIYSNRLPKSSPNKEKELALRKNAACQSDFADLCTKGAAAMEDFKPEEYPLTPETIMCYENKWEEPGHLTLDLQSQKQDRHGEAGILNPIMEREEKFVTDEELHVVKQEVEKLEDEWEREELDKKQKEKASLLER

[4] = target: sLCA5-WT (LCA5 96-430 with N-terminal MBP and C-terminal 6xHis) (human (cDNA library from HEK293)) (UniProt Q86VQ0); assay: as above
Sequence of sLCA5-WT (LCA5 96-430 with N-terminal MBP and C-terminal 6xHis) (human (cDNA library from HEK293)) (Q86VQ0 96-430): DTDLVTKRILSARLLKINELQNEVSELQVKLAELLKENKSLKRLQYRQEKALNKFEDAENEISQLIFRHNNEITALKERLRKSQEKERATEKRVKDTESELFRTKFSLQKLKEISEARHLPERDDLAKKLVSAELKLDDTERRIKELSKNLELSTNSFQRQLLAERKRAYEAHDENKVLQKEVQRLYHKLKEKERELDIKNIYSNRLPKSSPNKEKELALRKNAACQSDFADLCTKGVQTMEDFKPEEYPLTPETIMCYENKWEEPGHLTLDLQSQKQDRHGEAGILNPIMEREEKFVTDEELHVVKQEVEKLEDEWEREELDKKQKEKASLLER

[5] = target: sLCA5-ΔCQS (human (cDNA library from HEK293)) (UniProt Q86VQ0); assay: as above
Sequence of sLCA5-ΔCQS (human (cDNA library from HEK293)) (Q86VQ0 other isoform, or with tags, fused parts or gaps mutant): as the sequence (Q86VQ0 96-430) above, with C226A, Q227A, S228A counted along it

[6] = target: sLCA5-ΔVQT (human (cDNA library from HEK293)) (UniProt Q86VQ0); assay: SEC; Superose 6 Increase 10/300, DPBS with 200 μM TCEP; 30 μM LCA5 construct with 150 μM LC8, injected immediately or after 60 min at 37 °C; fractions analysed by SDS-PAGE and densitometry
[7] = target: sLCA5-WT (LCA5 96-430 with N-terminal MBP and C-terminal 6xHis) (human (cDNA library from HEK293)) (UniProt Q86VQ0); assay: as above
[8] = target: sLCA5-ΔCQS (human (cDNA library from HEK293)) (UniProt Q86VQ0); assay: as above
[9] = target: sLCA5-WT (LCA5 96-430 with N-terminal MBP and C-terminal 6xHis) (human (cDNA library from HEK293)) (UniProt Q86VQ0)

Sequence of Dynein light chain LC8 (DYNLL2), 6xHis-tagged (from UniProt Q96FJ2 1-89) (natural protein) (Q96FJ2 whole entry): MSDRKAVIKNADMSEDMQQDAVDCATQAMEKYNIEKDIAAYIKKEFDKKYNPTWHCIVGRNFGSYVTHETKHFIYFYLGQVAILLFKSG

stoichiometry N [1]: 2 | LC8 concentration at 80% saturation of the BMF peptide [2]: 12 µM | dH [3]: -12.5 kcal/mol | stoichiometry N [3]: 2 LCA5:LC8 | dH [4]: -11.8 kcal/mol | stoichiometry N [4]: 1 LCA5:LC8 | dH [5]: -8.62 kcal/mol | stoichiometry N [5]: 2 LCA5:LC8 | molar ratio LCA5:LC8 in the earlier eluted part of the LCA5 peak [6]: 2 LCA5:LC8 | molar ratio LCA5:LC8 in the later part of the LCA5 peak [6]: 1 LCA5:LC8 | molar ratio LCA5:LC8 in the LCA5 peak [7]: 1 LCA5:LC8 | molar ratio LCA5:LC8 in the intermediate fraction [7]: 1 LCA5:LC8 | molar ratio sLCA5:LC8 in the oligomeric (void) fraction [7]: 0.5 LCA5:LC8 | molar ratio LCA5:LC8 in the LCA5 peak [8]: 2 LCA5:LC8 | molar ratio sLCA5:LC8 in the oligomeric (void) fraction [8]: 1 LCA5:LC8 | increase in the melting temperature of sLCA5-WT in complex with LC8 (CD thermal denaturation at 222 nm, 10-80 °C; 1.2 μM LCA5, 6 μM LC8) [9]: 5 °C
Substance: Dynein light chain LC8 (DYNLL2), 6xHis-tagged (from UniProt Q96FJ2 1-89) (natural protein)
